Tests used:
[1] = target: human prokineticin receptor 2 (human) (UniProt Q8NFJ6); test: cell-based or functional assay
[2] = target: human prokineticin receptor 1 (human) (UniProt Q8TCW9); test: cell-based or functional assay
Sequence of UniProt Q8TCW9 (Q8TCW9 whole entry I255M/S256T): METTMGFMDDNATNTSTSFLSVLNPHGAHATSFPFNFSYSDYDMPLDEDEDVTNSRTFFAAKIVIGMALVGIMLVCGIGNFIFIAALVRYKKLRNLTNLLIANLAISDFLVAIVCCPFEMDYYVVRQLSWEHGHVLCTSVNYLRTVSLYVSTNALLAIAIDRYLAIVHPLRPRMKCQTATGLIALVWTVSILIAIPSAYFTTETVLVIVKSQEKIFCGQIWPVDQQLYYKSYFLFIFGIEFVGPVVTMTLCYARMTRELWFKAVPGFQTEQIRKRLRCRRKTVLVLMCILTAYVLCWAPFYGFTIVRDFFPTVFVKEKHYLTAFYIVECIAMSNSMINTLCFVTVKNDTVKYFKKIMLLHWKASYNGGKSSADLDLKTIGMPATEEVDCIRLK

Sequence of UniProt Q8NFJ6 (Q8NFJ6 whole entry): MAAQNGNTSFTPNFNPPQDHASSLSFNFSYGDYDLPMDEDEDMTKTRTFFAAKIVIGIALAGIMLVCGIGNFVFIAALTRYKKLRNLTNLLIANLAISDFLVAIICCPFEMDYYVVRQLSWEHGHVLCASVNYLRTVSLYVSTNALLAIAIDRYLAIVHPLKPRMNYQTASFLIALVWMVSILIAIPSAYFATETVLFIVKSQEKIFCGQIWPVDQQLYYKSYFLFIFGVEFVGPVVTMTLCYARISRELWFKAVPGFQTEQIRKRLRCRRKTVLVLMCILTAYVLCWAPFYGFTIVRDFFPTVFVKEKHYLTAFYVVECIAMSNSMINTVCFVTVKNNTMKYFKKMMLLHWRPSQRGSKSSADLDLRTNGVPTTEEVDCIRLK

Antagonistic Activity of PK mutants (Calcium Mobilization Assay), ligand PK1 [1] [nM] | Antagonistic Activity of PK mutants (Calcium Mobilization Assay), ligand PK2 [1] [nM] | Antagonistic Activity of PK mutants (Calcium Mobilization Assay), ligand PK1 [2] [nM] | Antagonistic Activity of PK mutants (Calcium Mobilization Assay), ligand PK2 [2] [nM] | Binder
16 | 29 | 6 | 110 | MV PK1 (ligand) MVITGACERDVQCGAGTCCAISLWLRGLRMCTPLGREGEECHPGSHKVPFFRKRKHHTCPCLPNLLCSRFPDGRYRCSMDLKNINF
15 | 30 | 9 | 90 | Met PK1 (ligand) MAVITGACERDVQCGAGTCCAISLWLRGLRMCTPLGREGEECHPGSHKVPFFRKRKHHTCPCLPNLLCSRFPDGRYRCSMDLKNINF
